The source of these data is patent US12357692B2, “Method of treating influenza A” (MEDIMMUNE, LLC, priority 2016, dated 2025).

A short description of data set [1]: Anti-drug antibody (ADA) responses in serum, electrochemiluminescent solution-phase bridging immunoassay. The class given is in vivo, human. Conditions: Days 15, 29 and 101 after single IV dose. The text has this:
Blood samples were collected at Days 15(±1), 29(±2) and 101(±5) to evaluate anti-drug antibody (ADA) responses to MEDI8852 in serum using an electrochemiluminescent, solution-phase, bridging immunoassay. All ADA results were negative (i.e., no anti-drug antibody was found).

The conditions of data set [2]: in vivo.
For data set [3], the system named is influenza A virus infection. Conditions: human, in vivo, iv.

Take “MEDI8852: human IgG1 kappa monoclonal antibody that binds the conserved stalk region of influenza HA protein; VH SEQ ID NO:2, VL SEQ ID NO:7”: in data set [1], the “anti-drug antibody (ADA) results” value is “negative”. Also, the “half-life following a single IV dose” value in data set [2] (human, iv) is 19.4 to 22.6 days. Besides, the PK dose linearity result in data set [2] is “dose-linear”. Further, the efficacy result in data set [3] is “better than oseltamivir alone”.
